Measured values from FireProtDB (doi:10.1021/bi00015a036).

Settings: Bacillus amyloliquefaciens, Thermal, DSC, reversible: yes (~80%), whole UniProt chain shown

B1: Ribonuclease wild type, P00648 (protein)
chain: MMKMEGIALKKRLSWISVCLLVLVSAAGMLFSTAAKTETSSHKAHTEAQVINTFDGVADYLQTYHKLPDNYITKSEAQALGWVASKGNLADVAPGKSIGGDIFSNREGKLPGKSGRTWREADINYTSGFRNSDRILYSSDWLIYKTTDHYQTFTKIR
- Tm (pH 7, PIPES 50 mM): 54 °C
- unfolding enthalpy (calorimetric) (pH 7, PIPES 50 mM): 132 kcal/mol
- Tm (pH 10, CAPS 50 mM): 48.6 °C
- unfolding enthalpy (calorimetric) (pH 10, CAPS 50 mM): 122 kcal/mol
- Tm (pH 10.3, CAPS 50 mM): 48.4 °C
- unfolding enthalpy (calorimetric) (pH 10.3, CAPS 50 mM): 121 kcal/mol
- Tm (pH 10.5, CAPS 50 mM): 47.4 °C
- unfolding enthalpy (calorimetric) (pH 10.5, CAPS 50 mM): 120 kcal/mol
